Biological target: EBOV GP on recombinant EBOV-eGFP virus (Zaire ebolavirus (EBOV))
Assay: cell-based or functional assay

Row | Binder | Neutralization, IC50 ng/mL [ng/mL]
1 | EBOV-507 (antibody, V domains shown) VH: QVQLVQSGAEVKKPGASVKVSCKASGYTFNNYLINWVRQAPGQGLEWMGWINPHSGGTEYAQQFQGRLTVTRDTSIRTAYMELRGLTFDDSAMYYCWIWFRSETFDFWGQGTLVTVSS VL: DIQMTQSPSAMSASVGDRVTITCRASQDISNYLAWFQQKPGQGPKRLIFEASILHSGVPSRFSGSGSGTEFTLTISSLQPEDFATYYCLQHNTYLTFGQGTKVEIK | > 200000
2 | EBOV-517 (antibody, V domains shown) VH: EVQLVESGGGLVQPGGSLRLSCGASGFTFNKYWMTWVRQAPGKGLEWVANINQDGSEKYFAESVKGRFTVSRDNAKNSLYLQMNSLRAEDTAVYYCARGASIEVEILYYYHMDVWGKGTLVTVSS VL: EIVMTQSPATLSVSPGERATLSCRASQSITTHLAWYQQKPGQAPRLLIYDTSTRATGIPARFSGSGSGTEFTLTISNMQSEDFAVYYCQQYHTWPPLTFGGGTKVEIK | > 200000
3 | EBOV-434 (antibody, V domains shown) VH: QVQLVQSGAEVKKPGASVKVSCKASGYTFTGYYMFWVRQAPGQGLEWMGWINPNSGGTNYTQKFQGRVTMTRDTSISTAYMELSRLKSDDTAVYYCARDSGELLFVGSDVWGQGTLVTVSS VL: DIQMTQSPSSVSASVGDRVTITCRASLDISYWLAWYQQKPGKAPKLLIYAASNLQSGVPSRFSGSGSGTDFTLTISSLQPEDFATYYCQQANSFPQTFGQGTRLELK | > 200000
4 | EBOV-442 (antibody, V domains shown) VH: EVQLVESGGGLVKPGGSLRLSCTGSGGTGFTFKYAGMSWVRQAPGKGPEWIGRIKSRIDGGTTDYAAPVKDRFIVSRDDSRNTLYLQMNSLKTEDTAVYYCATGSGKGPSASFGESYYYYDFINVWGKGTTVTVSS VL: ESVLTQSPGTLSLSPGERATLSCRASQSISRKYLAWYQQKPGQAPRLLIYGSSSRATGIPDRFSGSGSGTDFTLTISRLEPEDFAVYYCHQYESSPWTFGQGTKVEIK | 467
5 | EBOV-446 (antibody, V domains shown) VH: QVQLVQSGAEVKKPGASVKVSCKASGYTFTDYYIYWVRQAPGQGLEWMGWLNPNSGGTDYAQKFQGRVTMTRDTSIRTAYMDLSRLRSDDTAVYYCARGRRHGAYVDWGQGTLVTVSS VL: DIQLTQSPSFLSASVGDRVTITCRASQGISTYLAWYQQKPGKAPNLLIYDTSTLQSGVPSRFSGSASGTEFTLTISSLQPEDFATYYCQQLNFYLGGLTFGQGTRLEIK | > 200000
6 | EBOV-524 (antibody, V domains shown) VH: QVQLVESGGGVVQPGGSLRLSCAASGFKFSTYGMNWVRQVPGQGLEWVSFVRHDGSNKYYSDSVKGRFTIFRDNSNNKLYLQMNNLRAEDTAVYYCAKDVLDCSRADCFIYYYYMDVWGKGTLVTVSS VL: DIQMTQSPSSVSASPGDRVTITCRASQTISGWLAWYQQKPGKAPKLLIYDVSTLQSGVPSRFSGGGSGTEFTFTISSLQPEDYATYFCQQGNRIPLSFGGGTRVEIK | > 200000
7 | EBOV-511 (antibody, V domains shown) VH: QLQLQESGPGLVKPSETLSLSCTVSGDSISANNYFWGWIRQPPGKELEWIGSIHNSGSTYYNPSLKSRVTTSVDTSRTQFSLKLHSVTAADAAIYYCARHLAPISGVIFIPSFFDSWGQGTLVTVSS VL: EIVMTQSPATLSVSPGERATLSCRASQSVSSNLAWYQQRPGQAPRLLIFDASTRATGVPARFSGSGSGTEFTLTISSLQSEDFALYYCQQYNDWPPRLTFGGGTKVEIK | > 200000
8 | EBOV-451 (antibody, V domains shown) VH: EVQLVESGGSVVRPGGSLRLSCAASGFKFDEYGMSWVRQAPGKGLEWVSGITWNGGVRTYADSVKGRFTISRDNAKNSVYLQMKSLRGEDTALYYCVSWGERYDAYFDYWGQGTLVTVSS VL: EIVLTQSPGSLSLSPGERATLSCRASQSVNSRYFAWYQQRPGQAPRLLIYATSTRATGIPDRFSGSGSGTDFTLTISRLEPEDFAVYSCQQYGSSPYTFGQGTKLEIK | > 200000
9 | EBOV-520 (antibody, V domains shown) VH: QVQLQESGPGLGKPSETLSLSCTVSGASIRGYFWNWIRQPPGKGLEWIGYIHSTGSTNYNPSLKSRVTISVDTSKNQVSLNVNSVTAADTAVYFCARGAWNVATVYYYYGMDVWGQGTLVTVSS VL: EIVLTQSPGTLSLSPGERATLSCRASQSVSSSYFAWYQQKPGQAPRLLISGTSTRAPGIPDRFSGSGSGTDFTLTISRLEPEDFAVYFCQQYGNSLYTFGQGTKLEIK | 5740
10 | EBOV-510 (antibody, V domains shown) VH: QVQLQESGPGLVKPSQTLSLTCTVSGGSITSGDYYLTWVRQPPGKGLEWIGHIYYSGSTSYNPSLKSRLLMSVDTSKNQFSLRLSSVTAADTAVYYCARESDGDPSRLYFYFAMDVWGQGTLVTVSS VL: QSALTQPASVSGSPGQSITISCTGTSSDVGGSYFVSWYQHHPGKAPKLMISEVSNRPSGVSNRFSGSKSGNTASLTISGLRTEDEADYYCSSYTSNTTLVFGGETKVTVL | > 200000
11 | EBOV-514 (antibody, V domains shown) VH: QVQLQESGPGLVKPSQTLSLTCTVSGASITGGDDFWSWIRQPPGKGLEWIGFIHHSGNAYYRSSLKSRVHFSVDTSKDQFSLTLTSVTAADTAVYYCARDKAQAYGLLYHYHTDVWGKGTLVTVSS VL: EIVMTQSPATLSVSPGERATLSCRASQSVSSNLAWYQQKPGLAPRLLIYGAFTRATDIPDRFSGSGSGTEFTLTISSLQSEDFAIYYCQYYNDWPPGYTFGQGTKLEIK | > 200000
12 | EBOV-518 (antibody, V domains shown) VH: QVTLKESGPTLVKPTQTLTLTCTFSGFSMNSSGMSVTWIRQPPGKALECLALIYWDDDKWYGPSLETRVTITKDASKNQVVLTMTNMDPVDTATYYCAHSGGLVAGAFDYWGQGTLVTVSS VL: EIVMTQSPDSLTVSLGERATINCRSSQSVLYRVNSKNYLAWYQQKAGQTPKLIINWASTRESGVPDRFSGSGSGTDFTLTISSLQAEDVAVYYCQQYYNSPRTFGQGTKVEIK | > 200000
13 | EBOV-508 (antibody, V domains shown) VH: QVQLVQSGAEVKKPGASVKVSCKASGYTFINYYMHWVRQAPGQGLEWMGTINPSTGRPNYAQKFQGRVTLTRDTSTTTVDMELSSLTSEDTAVYYCVSFQFYFDYWGQGTLVTVSS VL: DIQMTQSPSAMSPSVGDRVTITCRASQGINNYLAWFQQKPGKVPKRLIYAASNLQSGVPSRFSGSGSGTEFTLTISSLQPEDFATYYCLQHNSYPWTFGQGTKVEIN | > 200000
